The results in this text go back to patent publication US11433139B2, “Peptide vaccines against interleukin-31” (Zoetis Services LLC, priority 2018, dated 2022).

Experiment [1] relates to mAb ZTS-361. Kind of experiment: Peptide block of mAb ZTS-361 inhibition of IL-31 mediated STAT3 phosphorylation in feline FCWF-4 macrophages. It is filed as cell-based.
For experiment [2], the system named is full length feline IL-31. Kind of experiment: Cat serology study, serum titers by indirect ELISA to feline IL-31. The experiment is classed as in vivo. Conditions: laboratory cats, 10 μg/dose s.c. days 0, 28, 56, Bay R1005 and CpG adjuvant mixture. As for the experimental part:
2.9. Serum titers to IL-31 following immunization of laboratory cats with IL-31 feline and equine mimotopes and full length feline IL-31 protein A serology study was performed using laboratory cats like the study design described herein in section 2.3 however in this study feline and equine mimotopes were compared. Laboratory cats were subcutaneously administered the conjugated IL-31 mimotopes adjuvanted with a mixture including the glycolipid adjuvant Bay R1005 (N-(2-Deoxy-2-L-leucylamino-β-D-glucopyranosyl)-N-octadecyldodecanoylamidehydroacetate) as well as CpG oligonucleotides. A control group was included containing CRM-197 conjugated feline IL-31 (SEQ ID NO: 157; Feline_IL31_wildtype), the corresponding nucleotide sequence for which is (SEQ ID NO: 158; Feline_IL-31_wildtype) in an adjuvant mixture including the glycolipid adjuvant Bay R1005 (N-(2-Deoxy-2-L-leucylamino-β-D-glucopyranosyl)-N-octadecyldodecanoylamidehydroacetate) as well as CpG oligonucleotides. (T01). 10 μg/dose of each adjuvanted mimotope or control was administered subcutaneously on days 0, 28, and 56 (0.5 ml of a 20 μg/ml solution). Blood for serum was taken on day −14, 0 (pre-dose), 28 (pre-dose), 42, 56 (pre-dose), 70, and 84. In addition, on days 35 and 63, approximately 40 mls of blood was collected from each animal into lithium heparin tubes and processed for PBMC isolation using a standard method. […]
(In general: In an ELISA, binding on a coated surface is turned into a signal by an enzyme label.)

Experiment [3] concerns full length feline IL-31 protein. Kind of experiment: Dog immunogenicity study, serum titers by indirect ELISA to feline IL-31. The experiment is classed as in vivo, canine. The conditions noted are these: beagle dogs, 10 μg/dose s.c. days 0, 28, 56, ZA-01 adjuvant; maximum dilution 1:50,000. From the text: (§1) An immunogenicity study was undertaken to assess the ability of CRM-197-conjugated IL-31 15H05 mimotopes to generate an epitope-specific immune response driven towards the relevant region on the IL-31 protein where antibody 15H05 binds and neutralizes the cytokines ability to activate the IL-31Ra:OSMR co-receptor. The study design is depicted in FIG. 14. Purebred male beagle dogs were subcutaneously administered the conjugated IL-31_15H05 mimotopes adjuvanted with ZA-01. […] Control groups were included containing ZA-01 adjuvant CRM-197 alone (T01) and CRM-197 conjugated feline IL-31 (SEQ ID NO: 159; Feline_IL-31_E_coli), the corresponding nucleotide sequence for which is (SEQ ID NO: 160; Feline_IL-31_E_coli) in ZA-01 (T02). 10 μg/dose of each adjuvanted mimotope or control was administered subcutaneously on days 0, 28, and 56 (0.5 ml of a 20 μg/ml solution). Blood for serum was taken on day 0 (pre-dose), 7, 12, 28 (pre-dose) 35, 42, 49, 56 (pre-dose), 63, 70, 77, and 84. In addition, on days 35 and 84, approximately 40 mls of blood was collected from each animal into lithium heparin tubes and processed for PBMC isolation using a standard method. […]
(§2) Serum titers from each study day indicated in section 2.3 above were assessed for each animal. Titers were determined using an indirect ELISA where a full length IL-31 protein was used as the capture material for each respective assay. […]

Experiment [4] has as its system full length canine IL-31. Kind of experiment: Dog immunogenicity study, serum titers by indirect ELISA to canine IL-31. The experiment is classed as in vivo. The conditions noted are these: beagle dogs, 10 μg/dose s.c. days 0, 28, 56, ZA-01 adjuvant; maximum dilution 1:50,000.
From the text: as §1, §2

Experiment [5] has as its system full length equine IL-31. Kind of experiment: Dog immunogenicity study, serum titers by indirect ELISA to equine IL-31. Conditions: beagle dogs, 10 μg/dose s.c. days 0, 28, 56, ZA-01 adjuvant. It is filed as in vivo.
From the text: as §1, §2

For experiment [6], the system named is full length human IL-31. Kind of experiment: Dog immunogenicity study, serum titers by indirect ELISA to human IL-31. The conditions noted are these: beagle dogs, 10 μg/dose s.c. days 0, 28, 56, ZA-01 adjuvant. The experiment is classed as in vivo, canine.
From the text: as §1, §2

Where no end group is shown, it is not given here.

Chain of mAb ZTS-361 (as listed by the source): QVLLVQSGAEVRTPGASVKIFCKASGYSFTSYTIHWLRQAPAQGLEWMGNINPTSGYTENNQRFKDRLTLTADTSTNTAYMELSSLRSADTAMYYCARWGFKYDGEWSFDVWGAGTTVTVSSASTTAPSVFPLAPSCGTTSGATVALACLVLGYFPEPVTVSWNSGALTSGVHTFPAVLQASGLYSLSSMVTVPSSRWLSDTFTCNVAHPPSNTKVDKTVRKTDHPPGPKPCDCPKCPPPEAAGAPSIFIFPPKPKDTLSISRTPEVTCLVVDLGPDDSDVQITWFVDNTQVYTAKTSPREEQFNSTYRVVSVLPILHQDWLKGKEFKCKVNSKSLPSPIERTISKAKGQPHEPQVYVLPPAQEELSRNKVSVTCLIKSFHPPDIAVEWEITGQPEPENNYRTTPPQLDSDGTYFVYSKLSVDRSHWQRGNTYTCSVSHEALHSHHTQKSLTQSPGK
Chain of mAb ZTS-361 (as listed by the source): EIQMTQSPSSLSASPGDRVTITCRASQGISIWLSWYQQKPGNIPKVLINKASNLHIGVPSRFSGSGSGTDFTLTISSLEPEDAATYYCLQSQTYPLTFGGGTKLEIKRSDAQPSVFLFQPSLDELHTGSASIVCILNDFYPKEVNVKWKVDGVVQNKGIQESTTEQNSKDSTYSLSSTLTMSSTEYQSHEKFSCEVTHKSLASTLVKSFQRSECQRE
Chain of full length canine IL-31 (as listed by the source): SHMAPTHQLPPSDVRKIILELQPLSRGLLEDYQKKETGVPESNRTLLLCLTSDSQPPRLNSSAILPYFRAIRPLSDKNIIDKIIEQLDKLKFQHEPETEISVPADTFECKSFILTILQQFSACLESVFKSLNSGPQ
Chain of full length equine IL-31 (as listed by the source): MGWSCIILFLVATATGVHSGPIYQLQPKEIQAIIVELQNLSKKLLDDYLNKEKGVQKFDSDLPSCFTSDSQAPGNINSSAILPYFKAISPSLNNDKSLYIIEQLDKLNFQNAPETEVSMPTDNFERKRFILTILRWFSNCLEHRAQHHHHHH

Take “constrained feline IL-31 15H05 mimotope, N-AKVSMPADNFERKNFILT-C plus N and C terminal Cysteines, mT2a (CAKVSMPADNFERKNFILTC; also: constrained via terminal cysteines, mode not given here) [ZTS-563]”: the “IC50, conjugated peptide” value in experiment [1] (CRM197 conjugated, co-incubated 1 hour with 0.2 μM mAb ZTS-361, FCWF-4 cells) amounted to 3.384 µg/mL. Further, the “decline of potency following conjugation” value in experiment [1] (conjugated vs unconjugated) is “approximately 3 fold”. For the same molecule, the “feline antibody titers to full length feline IL-31” value in experiment [2] was “modest response”.

B1: feline IL-31 CRM: CRM-197 conjugated feline IL-31 (SEQ ID NO: 159; Feline_IL-31_E_coli), control group T02 (conjugate)
chain: MRGSHHHHHHGSSHMAPAHRLQPSDIRKIILELRPMSKGLLQDYLKKEIGLPESNHSSLPCLSSDSQLPHINGSAILPYFRAIRPLSDKNTIDKIIEQLDKLKFQREPEAKVSMPADNFERKNFILAVLQQFSACLEHVLQSLNSGPQ
modifications: conjugated to CRM-197 carrier; Amino acid sequence representing feline IL-31 protein with N-terminal His tag
B1: the “canine antibody titers to full length feline IL-31” value in experiment [3] is “moderate and sustained antibody response”. The “canine antibody titers to full length canine IL-31” value in experiment [4] is on record as “transient CRAR”. For the same molecule, the “canine antibody titers (CRAR) to full length equine IL-31” value in experiment [5] was “negligible”. In addition, the “canine antibody titers (CRAR) to full length human IL-31” value in experiment [6] was “minor”.
